# Reference: US10525246B2, “Microdevice and method for transdermal delivery and sampling of active substances” (NANOMED SKINCARE, INC., priority 2006, dated 2020)
# Assay: Serum insulin concentration vs. time in diabetic rat after administration of insulin by the microdevice with occlusive layer
# Assay type: in vivo
# Description: The serum concentration reached 110±5.37 μIU/ml and stayed relatively constant at this level when the occlusive layer was applied.
substance,measurement,setting,value
Novolin R®: Novolin R insulin administered to a diabetic rat by the present microdevice,Serum insulin concentration after removal of the occlusive layer,after removal of the occlusive layer,rapidly dropped
same,Serum insulin concentration,"microdevice administration, occlusive layer applied, level reached and stayed relatively constant",110±5.37 μIU/ml
